Experiments:
Assay in all cases: holdup assay
Conditions in all cases: plain residues with an end cap or a label only (N-terminal biotin on a linker: (peg)3)
[1] = target: CNKSR3, Q6P9H4
[2] = target: DLG2_1, Q15700
[3] = target: DVL2, O14641
[4] = target: T1, GRIP1_1, Q9Y3R0
T1 sequence (Q9Y3R0 48-146, limits assumed, looked up): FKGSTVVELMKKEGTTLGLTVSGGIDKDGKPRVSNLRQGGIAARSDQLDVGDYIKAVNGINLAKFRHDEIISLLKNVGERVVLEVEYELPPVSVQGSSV

[5] = target: Inadl_7, Q8NI35
[6] = target: MAGI1_3, Q96QZ7
[7] = target: MAGI1_6, Q96QZ7
Sequence of MAGI1_6, Q96QZ7 (Q96QZ7 1146-1238): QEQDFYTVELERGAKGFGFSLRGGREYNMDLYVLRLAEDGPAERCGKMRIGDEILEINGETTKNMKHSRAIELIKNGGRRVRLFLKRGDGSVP

[8] = target: MAGI3_5, Q5TCQ9
Sequence of MAGI3_5, Q5TCQ9 (Q5TCQ9 847-941): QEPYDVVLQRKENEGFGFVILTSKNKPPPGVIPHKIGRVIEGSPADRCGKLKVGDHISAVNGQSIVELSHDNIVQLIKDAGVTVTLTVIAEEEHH

[9] = target: MAGI3_6, Q5TCQ9
Sequence of MAGI3_6, Q5TCQ9 (Q5TCQ9 1014-1103): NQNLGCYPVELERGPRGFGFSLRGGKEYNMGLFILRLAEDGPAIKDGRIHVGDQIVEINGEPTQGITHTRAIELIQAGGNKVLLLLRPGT

[10] = target: MAGIX, Q9H6Y5
Sequence of MAGIX, Q9H6Y5 (Q9H6Y5 118-211): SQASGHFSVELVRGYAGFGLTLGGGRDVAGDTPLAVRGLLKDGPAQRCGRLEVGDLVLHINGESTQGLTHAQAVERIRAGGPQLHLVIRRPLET

[11] = target: T2, MPDZ_11, O75970
T2 sequence (O75970 1720-1817, limits assumed, looked up): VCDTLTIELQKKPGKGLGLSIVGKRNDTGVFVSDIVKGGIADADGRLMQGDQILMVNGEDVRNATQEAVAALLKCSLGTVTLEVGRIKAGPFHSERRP

[12] = target: T3, MPDZ_6, O75970
T3 sequence (O75970 1003-1099, limits assumed, looked up): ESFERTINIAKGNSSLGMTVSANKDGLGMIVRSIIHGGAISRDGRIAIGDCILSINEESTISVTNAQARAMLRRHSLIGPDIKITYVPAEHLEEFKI

[13] = target: T4, MPP5, Q8N3R9
T4 sequence (Q8N3R9 251-346, limits assumed, looked up): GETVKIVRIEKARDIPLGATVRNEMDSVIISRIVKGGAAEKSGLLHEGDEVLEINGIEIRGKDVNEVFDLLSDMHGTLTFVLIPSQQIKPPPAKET

[14] = target: PDLIM4, P50479
Sequence of PDLIM4, P50479 (P50479 1-83): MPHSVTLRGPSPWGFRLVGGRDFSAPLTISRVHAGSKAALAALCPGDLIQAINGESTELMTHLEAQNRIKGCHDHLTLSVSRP

[15] = target: T5, PDZD2_4, O15018
T5 sequence (O15018 723-823, limits assumed, looked up): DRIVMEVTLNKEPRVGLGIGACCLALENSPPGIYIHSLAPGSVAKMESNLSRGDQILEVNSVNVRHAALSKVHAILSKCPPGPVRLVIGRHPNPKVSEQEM

[16] = target: T6, PDZD7_1, Q9H5P4
T6 sequence (Q9H5P4 81-178, limits assumed, looked up): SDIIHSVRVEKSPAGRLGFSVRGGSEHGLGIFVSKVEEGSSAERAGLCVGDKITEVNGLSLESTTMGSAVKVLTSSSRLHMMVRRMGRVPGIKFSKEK

[17] = target: T7, PDZD8, Q8NEN9
T7 sequence (Q8NEN9 361-459, limits assumed, looked up): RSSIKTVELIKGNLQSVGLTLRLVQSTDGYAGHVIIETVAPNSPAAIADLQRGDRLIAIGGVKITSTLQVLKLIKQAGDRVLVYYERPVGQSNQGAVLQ

[18] = target: T8, PDZRN3_2, Q9UPQ7
T8 sequence (Q9UPQ7 414-513, limits assumed, looked up): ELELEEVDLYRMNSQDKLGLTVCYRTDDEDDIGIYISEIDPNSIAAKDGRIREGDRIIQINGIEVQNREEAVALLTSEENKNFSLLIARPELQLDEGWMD

[19] = target: PREX1_1, Q8TCU6
Sequence of PREX1_1, Q8TCU6 (Q8TCU6 608-718): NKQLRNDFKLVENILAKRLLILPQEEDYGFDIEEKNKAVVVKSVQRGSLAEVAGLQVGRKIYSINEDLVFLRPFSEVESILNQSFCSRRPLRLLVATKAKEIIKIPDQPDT

[20] = target: RIMS1, Q86UR5
Sequence of RIMS1, Q86UR5 (Q86UR5 584-692): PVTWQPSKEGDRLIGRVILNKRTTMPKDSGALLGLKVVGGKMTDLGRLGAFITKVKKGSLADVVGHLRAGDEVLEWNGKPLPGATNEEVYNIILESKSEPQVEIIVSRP

[21] = target: SDCBP_1, O00560
Sequence of SDCBP_1, O00560 (O00560 111-198): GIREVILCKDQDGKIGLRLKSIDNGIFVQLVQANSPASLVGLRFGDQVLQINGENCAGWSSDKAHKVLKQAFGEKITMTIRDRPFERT

[22] = target: T9, SHROOM2, Q13796
T9 sequence (Q13796 21-118, limits assumed, looked up): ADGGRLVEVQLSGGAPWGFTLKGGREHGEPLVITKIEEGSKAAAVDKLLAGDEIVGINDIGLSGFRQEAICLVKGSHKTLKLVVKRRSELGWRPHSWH

[23] = target: T10, SHROOM4, Q9ULL8
T10 sequence (Q9ULL8 5-102, limits assumed, looked up): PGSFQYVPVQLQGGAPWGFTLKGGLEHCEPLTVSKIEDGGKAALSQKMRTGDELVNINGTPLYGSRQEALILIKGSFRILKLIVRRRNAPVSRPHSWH

[24] = target: T11, SNTB2, Q13425
T11 sequence (Q13425 110-208, limits assumed, looked up): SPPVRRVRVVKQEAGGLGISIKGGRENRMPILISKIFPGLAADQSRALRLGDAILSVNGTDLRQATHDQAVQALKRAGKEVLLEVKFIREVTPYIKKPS

[25] = target: T12, TJP3_1, O95049
T12 sequence (O95049 6-103, limits assumed, looked up): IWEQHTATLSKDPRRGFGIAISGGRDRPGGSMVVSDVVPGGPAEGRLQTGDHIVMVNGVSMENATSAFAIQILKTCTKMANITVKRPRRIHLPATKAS

Measured: pKd

Sequence of Inadl_7, Q8NI35 (Q8NI35 1219-1332): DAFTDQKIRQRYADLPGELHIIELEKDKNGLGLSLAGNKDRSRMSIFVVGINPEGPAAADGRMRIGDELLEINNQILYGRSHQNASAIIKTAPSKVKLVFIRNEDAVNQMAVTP
Sequence of DVL2, O14641 (O14641 260-359): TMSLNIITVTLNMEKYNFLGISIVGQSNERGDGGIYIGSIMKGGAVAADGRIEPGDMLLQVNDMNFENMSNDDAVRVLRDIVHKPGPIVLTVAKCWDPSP
Sequence of MAGI1_3, Q96QZ7 (Q96QZ7 638-725): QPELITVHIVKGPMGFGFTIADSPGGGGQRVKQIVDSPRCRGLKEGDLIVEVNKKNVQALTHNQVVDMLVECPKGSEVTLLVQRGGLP
Sequence of CNKSR3, Q6P9H4 (Q6P9H4 203-303): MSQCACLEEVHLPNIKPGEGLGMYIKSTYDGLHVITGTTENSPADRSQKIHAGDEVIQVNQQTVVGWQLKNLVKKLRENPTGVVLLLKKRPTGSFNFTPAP

NLNSSEGVPDLLV [SARS-CoV-E, P59637]
below the threshold: all assays above
